In the nanobody polyreactivity screen of Harvey et al. (2022):

Experiment: yeast display, Sf9 membrane polyspecificity reagent, FACS + sequencing; frameworks hold sequencing errors
In short: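 Polyreactivity labels are assigned by the sorting gate from which each nanobody was recovered. The gates were low and high (top ~1%), set on anti-HA fluorescence for expression and streptavidin fluorescence for reagent binding. Before sorting, galactose-induced (36–48 hours) yeast display cells were stained for 1 hour at 4 °C with 10% biotinylated, detergent-solubilized Sf9 membrane reagent.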

Row | Sequence | polyreactivity (PSR sort gate)
1 | QVQLVESGGGLVQAGGSLRLSCAASGGTFTHYGMGWYRQAPGKERELVAAITWTASSTYYADSVKGRFTISRDNAKNTVYLQMNSLKPEDTAVYYCATSYYYWGHTYDYWGQGTQVTVSS | low polyreactivity
2 | QVQLVESGGGLVQAGGSLRLSCAASGSIFYKYVMGWYRQAPGKERELVAAISRGGGSTYYADSVKGRFTISRDNAKNTVYLQMNSLKPEDTAVYYCNAVGRPRYGHGFDHWGQGTQVTVSS | high polyreactivity
3 | QVQLVESGGGLVQAGGRLRLSCAASGRTFAYYAMGWYRQAPGKERELVASITTRDGSTYYADSVKGRFTISRDNAKNTVYLQMNSLKPEDTAVYYCAAATEYSSGYEYDYWGQGTQVTVSS | low polyreactivity
4 | QVQLVESGGGLVQAGGSLRLSCAASGSTFLDYAMGWYRQAPGQERELVAAITSVGGTYADSVKGRFTISRDKAKNTVYLQKNSLKPEDTAGYYCAADADFWYYVVHRGSTFDYSGQGTQVTVSS | low polyreactivity
5 | QVQLVESGGGLVQAGGSLRLSCGASGFTFYSYAMGWYRPARGKARELVATITKSGGNTYYADSVKGRFTISRDNAKNTVYLQMTSLKPVDTAVYYCAAATKVGRYKRKTVSYYYWCQGTQVTVSS | high polyreactivity
6 | QVQLVESGGGLVQAGGSLRLSCAASGSTFPQNVMGWYRQAPGKVRELVAAITRSAGSTYYADSVKGRFTISRDNPKNTVYLQMNSLKPEDTAVYNCNTGRQRGSYYYDYWGQGTQVTVSS | high polyreactivity
7 | QVQLVESGGGLVQAGGRLRLSCAASAFTFYYYAMGWYRPAPGKERELVAAISWSGGSTYYADSVKGRFTFSRDNAKNTVYLQMNSLKPEDTAVYYCAADVYKQYGYYYWGQGTQVTVSS | high polyreactivity
8 | QVQLVESGGGLVQAGGSLRLSCAASGLIFRVYTMGWYRQAPGKERELVSAITGRGGRTYYADSVKGRFTISRDNAKNTVYLQMNSLKPEDTAVYYCATGGRYQQAAYTGYNYWGQGTQVTVSS | high polyreactivity
9 | QVQLVESGGGLVQAGGTLRLSCAASGSIFNPYAMGWYRQAPGKDRELVATITRPGRTNYADSVKGRFTISRDHAENTVYLQMNSLKPEDTAVYYCAAYTSYGVYYWGQGTQVTVSS | high polyreactivity
10 | QVQLVESGGGLVQAGGSLRLSCAASGLTFTYYAMGWYRQSPGKASEFVAAISSSGSDTYYADSVKGRFTISRDNAKNTVYLQMTSQKPEDTAVYYCAAVLTGLSPDFEYEYWGQGTQVTVSS | low polyreactivity
11 | QVQLVESGGGLVQAGGSLRLSCAASGITFGANTMGWYRQAPGKERELVAAITISGGITHYADSVKGRFTISRDNAKNTVYLQMNRLKPEDTAVYYCAAGAYWRLYPYRQRNGGRMYYWGQGTQVTVSS | low polyreactivity
12 | QVQLVESGGGLVQAGGSLRLSCAASGRIFSRYAMGWYRQAPVKERELVATITRSGARTYYADSVKGRFTISRDNAKNTVYLQMNSLKPEDTAVYYCATPYKYVTGEDYWGQGTQVTVSS | high polyreactivity
13 | QVQLVESGGGLVQAGGSLRLSCAASGSTFASNVMGWYRQAPGKERELVAAISRSGGNTYYADSVKGRFTISRDIAKNTVYLQMNSLKPEDTAVYYCAKYPFTRISYDYWGQGTLVTVSS | high polyreactivity
14 | QVQLVESGGGLVQAGASLRLSCAASGFIYSFNTMGWYRQAPGKERELVAAITSGGSTNYADSVKGRFTISRDNAKNTVYLQMNSLKPEDTAVYYCNRQYYSYYGNDYWGQGTQVTVSS | high polyreactivity
15 | QVQLVESGGGLVQAGGSLRLSCAASGSIFVRNAMGWYRQAPGKERELVAGISASGGSTYYADSVKGRFTISRDNAKNTVYLQMNSLKPEDTAVYYCANKVSTRFARYRYDYWGQGTQVTVSS | high polyreactivity
16 | QVQLVESGGGLVQAGGSLRLSCAASGRIFEGYAMGWYRQAPGKERELVAAITGSGGGTYYADSVKGRFTISRDNAKNTVYLQMNSLKPEDTAVYYCATAYSAYQHPYGYWGKGTQVTVSS | low polyreactivity
17 | QVQLVESGGGLVQAGGSLRISCAASDAMGWYRQAPGKERELVASISNGVSTNYADSVKGRFTISRDNAKNTVYLQMNSLKPEDTAVYYCAADAKTVGRDDLYWYEVEFDYWGQGTQVNVSS | low polyreactivity
